Results on eight molecules are retold here after US20240247080A1, “GLP1/GIP/NPY2 RECEPTOR TRIPLE AGONISTS” (Boehringer Ingelheim International GmbH, priority 2022, published 2024).

What all share (assay): cell-based or functional assay
One test addresses human GLP-1 receptor (human, UniProt P43220 24-463).
The next test addresses T1, human GIP receptor (human, UniProt P48546 22-466).
T1 sequence (looked up): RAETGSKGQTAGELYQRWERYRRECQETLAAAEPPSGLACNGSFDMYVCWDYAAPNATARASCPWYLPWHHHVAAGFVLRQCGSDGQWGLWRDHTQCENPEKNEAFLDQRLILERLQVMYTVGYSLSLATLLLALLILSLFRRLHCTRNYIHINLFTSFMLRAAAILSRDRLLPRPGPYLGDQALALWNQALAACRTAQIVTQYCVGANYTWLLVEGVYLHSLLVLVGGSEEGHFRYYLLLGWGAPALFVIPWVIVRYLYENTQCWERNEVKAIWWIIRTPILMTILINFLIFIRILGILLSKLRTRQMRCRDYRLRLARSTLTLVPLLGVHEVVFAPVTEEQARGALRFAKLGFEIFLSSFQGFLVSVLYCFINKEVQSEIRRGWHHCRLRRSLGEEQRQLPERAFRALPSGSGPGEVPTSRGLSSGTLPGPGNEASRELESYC

Test [1] concerns the target T2, human neuropeptide Y2 receptor (human, UniProt P49146 1-381).
T2 sequence (looked up): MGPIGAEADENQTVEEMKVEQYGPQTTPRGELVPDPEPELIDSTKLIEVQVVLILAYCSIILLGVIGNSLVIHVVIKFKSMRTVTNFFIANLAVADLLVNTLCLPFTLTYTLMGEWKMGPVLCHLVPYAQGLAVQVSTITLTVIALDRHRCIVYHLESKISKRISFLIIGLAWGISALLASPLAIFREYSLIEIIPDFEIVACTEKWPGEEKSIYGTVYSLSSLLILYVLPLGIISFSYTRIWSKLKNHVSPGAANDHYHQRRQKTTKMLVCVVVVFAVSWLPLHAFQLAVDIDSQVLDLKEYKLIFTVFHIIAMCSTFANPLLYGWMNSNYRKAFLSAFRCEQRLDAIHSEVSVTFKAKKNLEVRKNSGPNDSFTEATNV

Starred links: 1 amine or outer side, 2 acyl side, 3 side chain; linkers in the order of their positions; H or OH if unused. Non-standard residues stand in square brackets, D forms with d. Groups on a side chain read outwards from the residue. No end group written: not given here. *: point of attachment. C20 diacid = O=C(O)CCCCCCCCCCCCCCCCCCC(=O)*; C18 diacid = O=C(O)CCCCCCCCCCCCCCCCC(=O)*; γGlu = O=C(O)[C@H](CCC(=O)[*:2])N[*:1]; εLys = N[C@@H](CCCCN[*:1])C(=O)[*:2]; AEEA = NCCOCCOCC(=O)O; Aib = CC(C)(N)C(=O)O; Ahx = NCCCCCC(=O)O

Y[Aib]EGTFTSDYSI[Aib]LEKQAQ[Aib]AFVEWLIK([εLys-γGlu-Glu-γGlu-γGlu-γGlu-C20 diacid])GGPSEGASLRHYYNWLTRQRY-NH2 (also: TFA salt) [Compound 290]: in the test with human GLP-1 receptor, the “EC50 hGLP1R 0.5% hP (CreLuc)” value was found to be 0.13 nM and the “EC50 hGLP1R 100% hP (CreLuc)” value was found to be 2.87 nM. In the test with human GIP receptor, the “EC50 hGIPR 0.5% hP (CreLuc)” value is 0.89 nM and the “EC50 hGIPR 100% hP (CreLuc)” value amounted to 1.18 nM. Further, in test [1], the “EC50 hNPY2R 0.5% hP (CreLuc)” value was found to be 9.68 nM and the “EC50 hNPY2R 100% hP (CreLuc)” value worked out at 46.3 nM.

B1: Compound 275 (peptide)
peptide: YXEGTFTSDYSIXLEKQAQXEFVEWLIKGGPSEGASLRHYYNWLTRQRY
modifications: Aib at 2, 13, 20; K28 side chain acylated with C20DA-gGlu-gGlu-gGlu-gGlu-gGlu-gGlu-eLys; C-terminal amide (NH2)
Consider B1, for which, in the test with human GLP-1 receptor, the “EC50 hGLP1R 0.5% hP (CreLuc)” value is 0.5 nM and the “EC50 hGLP1R 100% hP (CreLuc)” value amounted to 21.7 nM. In the test with human GIP receptor, the “EC50 hGIPR 0.5% hP (CreLuc)” value came out at 0.27 nM and the “EC50 hGIPR 100% hP (CreLuc)” value was determined as 1.75 nM. In test [1], the “EC50 hNPY2R 0.5% hP (CreLuc)” value was 19.9 nM and the “EC50 hNPY2R 100% hP (CreLuc)” value turned out to be 60 nM.

B2: Compound 289 (peptide)
peptide: YXEGTFTSDYSIXLEKQAQXAFVEWLIKGGPSEGASLRHYYNWLTRQRY
modifications: Aib at 2, 13, 20; K28 side chain acylated with C20DA-gGlu-gGlu-gGlu-gGlu-gGlu; C-terminal amide (NH2)
For the molecule B2, in the test with human GLP-1 receptor, the “EC50 hGLP1R 0.5% hP (CreLuc)” value was determined as 0.14 nM and the “EC50 hGLP1R 100% hP (CreLuc)” value was 3.51 nM. For the same molecule, in the test with human GIP receptor, the “EC50 hGIPR 0.5% hP (CreLuc)” value stood at 0.7 nM and the “EC50 hGIPR 100% hP (CreLuc)” value was 1.75 nM. In test [1], the “EC50 hNPY2R 0.5% hP (CreLuc)” value is 11.1 nM and the “EC50 hNPY2R 100% hP (CreLuc)” value worked out at 56.3 nM.

B3: Compound 277 (peptide)
peptide: YXEGTFTSDYSIXLEKQAQXAFVEWLIKGGPSEGASLRHYYNWLTRXRY
modifications: Aib at 2, 13, 20; bHGln (beta-homo-L-glutamine) at 47; K28 side chain acylated with C20DA-gGlu-gGlu-gGlu-gGlu-gGlu-gGlu-eLys; C-terminal amide (NH2)
On to B3, for which, in the test with human GLP-1 receptor, the “EC50 hGLP1R 0.5% hP (CreLuc)” value was 0.19 nM and the “EC50 hGLP1R 100% hP (CreLuc)” value was 1.29 nM. Besides, in the test with human GIP receptor, the “EC50 hGIPR 0.5% hP (CreLuc)” value turned out to be 0.11 nM and the “EC50 hGIPR 100% hP (CreLuc)” value was 0.68 nM. Moreover, in test [1], the “EC50 hNPY2R 0.5% hP (CreLuc)” value was more than 99.9 nM and the “EC50 hNPY2R 100% hP (CreLuc)” value is 1120 nM.

Y[Aib]EGTFTSDYSI[Aib]LEKQAQ[Aib]EFVEWLIK([AEEA-AEEA-γGlu-γGlu-γGlu-C18 diacid])GGPSEGASLRHYYNWLTRQRY-NH2 (also: TFA salt) [Compound 284]: in the test with human GLP-1 receptor, the “EC50 hGLP1R 0.5% hP (CreLuc)” value came out at 0.51 nM and the “EC50 hGLP1R 100% hP (CreLuc)” value is 12.6 nM. Also, in the test with human GIP receptor, the “EC50 hGIPR 0.5% hP (CreLuc)” value was found to be 0.33 nM and the “EC50 hGIPR 100% hP (CreLuc)” value is 0.8 nM. Besides, in test [1], the “EC50 hNPY2R 0.5% hP (CreLuc)” value was 18.8 nM and the “EC50 hNPY2R 100% hP (CreLuc)” value came to 44.7 nM.

For Y[Aib]EGTFTSDYSI[Aib]LEKQAQ[Aib]EFVEWLIK([AEEA-AEEA-γGlu-C18 diacid])GGPSEGASLRHYYNWLTRQRY-NH2 (also: TFA salt) [Compound 282], in the test with human GLP-1 receptor, the “EC50 hGLP1R 0.5% hP (CreLuc)” value is 0.51 nM and the “EC50 hGLP1R 100% hP (CreLuc)” value stood at 24.6 nM. In the test with human GIP receptor, the “EC50 hGIPR 0.5% hP (CreLuc)” value turned out to be 0.17 nM and the “EC50 hGIPR 100% hP (CreLuc)” value is 1.03 nM. Further, in test [1], the “EC50 hNPY2R 0.5% hP (CreLuc)” value stood at 17.3 nM and the “EC50 hNPY2R 100% hP (CreLuc)” value was 71.4 nM.

For the molecule Y[Aib]EGTFTSDYSI[Aib]LEKQAQ[Aib]AFVEWLIK([AEEA-AEEA-γGlu-γGlu-γGlu-γGlu-C20 diacid])GGPSEGASLRHYYNWLTRQRY-NH2 (also: TFA salt) [Compound 287], in the test with human GLP-1 receptor, the “EC50 hGLP1R 0.5% hP (CreLuc)” value stood at 0.27 nM and the “EC50 hGLP1R 100% hP (CreLuc)” value was 6.34 nM. In the test with human GIP receptor, the “EC50 hGIPR 0.5% hP (CreLuc)” value came out at 0.34 nM and the “EC50 hGIPR 100% hP (CreLuc)” value stood at 2.42 nM. Besides, in test [1], the “EC50 hNPY2R 0.5% hP (CreLuc)” value worked out at 13.3 nM and the “EC50 hNPY2R 100% hP (CreLuc)” value was found to be 45.9 nM.

As to Y[Aib]EGTFTSDYSI[Aib]LEKQAQ[Aib]EFVEWLIK([Ahx-γGlu-γGlu-γGlu-γGlu-γGlu-γGlu-C18 diacid])GGPSEGASLRHYYNWLTRQRY-NH2 (also: TFA salt) [Compound 279], in the test with human GLP-1 receptor, the “EC50 hGLP1R 0.5% hP (CreLuc)” value was 0.72 nM and the “EC50 hGLP1R 100% hP (CreLuc)” value is 13.4 nM. Further, in the test with human GIP receptor, the “EC50 hGIPR 0.5% hP (CreLuc)” value worked out at 0.71 nM and the “EC50 hGIPR 100% hP (CreLuc)” value is 1.76 nM. In test [1], the “EC50 hNPY2R 0.5% hP (CreLuc)” value came to 32.4 nM and the “EC50 hNPY2R 100% hP (CreLuc)” value amounted to 103 nM.
